Reference: article PMC5730846, “Tumor suppressor Tsc1 is a new Hsp90 co‐chaperone that facilitates folding of kinase and non‐kinase clients” (The EMBO Journal, 2017)

Target: the molecule itself
Assay: SEC; Tsc1-D-His6 concentrated to 10 mg/ml, Superdex 75 gel filtration

B1: Tsc1-D-His6 (domain or fragment, UniProt Q92574 998-1164, looked up)
chain: DGCSDSMVGHNEEASGHNGETKTPRPSSARGSSGSRGGGGSSSSSSELSTPEKPPHQRAGPFSSRWETTMGEASASIPTTVGSLPSSKSFLGMKARELFRNKSESQCDEDGMTSSLSESLKTELGKDLGVEAKIPLNLDGPHPSPPTPDSVGQLHIMDYNETHHEHS
notes: predicted monomer 22.1 kDa; dimer by gel filtration; also called fragment D; source: E. coli Tuner pLysS, purified (Ni-NTA)
stoichiometry N: 2
